Patent US20020119154A1 (University of Pennsylvania, published 2002)

B1: human prolactin (hPRL) (ligand, UniProt P01236 29-227, looked up)
chain: LPICPGGAARCQVTLRDLFDRAVVLSHYIHNLSSEMFSEFDKRYTHGRGFITKAINSCHTSSLATPEDKEQAQQMNQKDFLSLIVSILRSWNEPLYHLVTEVRGMQEAPEAILSKAVEIEEQTKRLLEGMELIVSQVHPETKENEIYPVWSGLPSLQMADEESRLSAYYNLLHCLRRDSHKIDNYLKLLKCRIIHNNNC
notes: Serum PRL and added hPRL are treated as one molecule; also called serum PRL; plasma PRL
B2: recombinant human prolactin binding protein (rhPRLBP) (receptor, UniProt P16471 25-234, looked up)
chain: QLPPGKPEIFKCRSPNKETFTCWWRPGTDGGLPTNYSLTYHREGETLMHECPDYITGGPNSCHFGKQYTSMWRTYIMMVNATNQMGSSFSDELYVDVTYIVQPDPPLELAVEVKQPEDRKPYLWIKWSPPTLIDLKTGWFTLLYEIRLKPEKAAEWEIHFAGQQTEFKILSLHPGQKYLVQVRCKPDHGYWSAWSPATFIQIPSDFTMND

Tests used:
[1] = molecular target: B2; test: surface plasmon resonance, various concentrations of rPRLBP; binding site I of PRL; rPRLBP in solution at various concentrations
[2] = molecular target: B1; test: cell-based or functional assay

Kd [1]	rat Nb2-11C lymphoma cell proliferation (tritiated thymidine uptake), 50 pM hPRL, 0-100 nM rhPRLBP [2]	Binder
13.4 nM		B1
	3 fold	B2
